From patent US20030166216

How the values were obtained:
[1] = test system: protein kinase C (PKC) substrate
[2] = test system: mylein basic protein (MBP)
[3] = test system: poly (Arg, Pro, Thr) 6:3:1

B1: human checkpoint kinase (hChk1) (enzyme)
chain: MAVPFVEDWDLVQTLGEGAYGEVQLAVNRVTEEAVAVKIVDMKRAVDCPENIKKEICINKMLNHENVVKFYGHRREGNIQYLFLEYCSGGELFDRIEPDIGMPEPDAQRFFHQLMAGVVYLHGIGITHRDIKPENLLLDERDNLKISDFGLATVFRYNNRERLLNKMCGTLPYVAPELLKRREFHAEPVDVWSCGIVLTAMLAGELPWDQPSDSCQEYSDWKEKKTYLNPWKKIDSAPLALLHKILVENPSARITIPDIKKDRWYNKPLKKGAKRPRVTSGGVSESPSGFSKHIQSNLDFSPVNSASSEENVKYSSSQPEPRTGLSLWDTSPSYIDKLVQGISFSQPTCPDHMLLNSQLLGTPGSSQNPWQRLVKRMTRFFTKLDADKSYQCLKETCEKLGYQWKKSCMNQVTISTTDRRNNKLIFKVNLLEMDDKILVDFRLSKGDGLEFKRHFLKIKGKLIDIVSSQKVWLPAT
modifications: possible His tag
in vitro protein kinase phosphorylation assay ([gamma-33P]ATP incorporation, cpm) (cAMP substrate): significant activity was also found with ... cAMP substrate
in vitro protein kinase phosphorylation assay ([gamma-33P]ATP incorporation, cpm) (calmodulin substrate): hChk1 showed the highest phosphorylating activity using a calmodulin substrate or the synthetic peptide substrate, poly (Arg, Ser) 3:1
in vitro protein kinase phosphorylation assay ([gamma-33P]ATP incorporation, cpm) [1]: significant activity was also found with ... protein kinase C (PKC) substrate
in vitro protein kinase phosphorylation assay ([gamma-33P]ATP incorporation, cpm) [2]: significant activity was also found with mylein basic protein (MBP)
in vitro protein kinase phosphorylation assay ([gamma-33P]ATP incorporation, cpm) [3]: significant activity was also found with ... poly (Arg, Pro, Thr) 6:3:1
in vitro protein kinase phosphorylation assay ([gamma-33P]ATP incorporation, cpm) (poly (Arg, Ser) 3:1): hChk1 showed the highest phosphorylating activity using a calmodulin substrate or the synthetic peptide substrate, poly (Arg, Ser) 3:1
in vitro protein kinase phosphorylation assay ([gamma-33P]ATP incorporation, cpm) (casein): significant activity was also found with ... casein
